From patent US20180298070A1, “PEPTIDE COMPOUND” (Takeda Pharmaceutical Company Limited, published 2018)
Changes are numbered by the printed parent chain. Starred links: 1 amine or outer side, 2 acyl side, 3 side chain; linkers in the order of their positions; H or OH if unused. Non-standard residues stand in square brackets, D forms with d. Groups on a side chain read outwards from the residue. Primed or numbered codes have the meaning given here. No end group written: not given here. *: point of attachment. C20 diacid = O=C(O)CCCCCCCCCCCCCCCCCCC(=O)*; γGlu = O=C(O)[C@H](CCC(=O)[*:2])N[*:1]; Iva = CC[C@](C)(N)C(=O)O; PEG3′ = not defined here; Aib = CC(C)(N)C(=O)O

T1: human GIPR (human), P48546
T1 chain: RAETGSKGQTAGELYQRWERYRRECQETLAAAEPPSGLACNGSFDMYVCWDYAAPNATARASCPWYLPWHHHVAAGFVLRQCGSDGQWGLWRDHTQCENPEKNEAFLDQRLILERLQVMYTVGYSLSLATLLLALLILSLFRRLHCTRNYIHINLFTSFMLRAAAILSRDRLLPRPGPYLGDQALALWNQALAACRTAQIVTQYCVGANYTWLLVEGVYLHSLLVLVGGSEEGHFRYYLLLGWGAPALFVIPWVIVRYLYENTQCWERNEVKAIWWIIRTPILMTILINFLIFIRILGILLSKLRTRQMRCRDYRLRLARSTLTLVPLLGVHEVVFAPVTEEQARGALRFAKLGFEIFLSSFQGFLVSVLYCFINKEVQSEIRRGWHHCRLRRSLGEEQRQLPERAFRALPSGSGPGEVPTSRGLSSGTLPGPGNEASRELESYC

T2: human GLP-1R (human), P43220
T2 chain: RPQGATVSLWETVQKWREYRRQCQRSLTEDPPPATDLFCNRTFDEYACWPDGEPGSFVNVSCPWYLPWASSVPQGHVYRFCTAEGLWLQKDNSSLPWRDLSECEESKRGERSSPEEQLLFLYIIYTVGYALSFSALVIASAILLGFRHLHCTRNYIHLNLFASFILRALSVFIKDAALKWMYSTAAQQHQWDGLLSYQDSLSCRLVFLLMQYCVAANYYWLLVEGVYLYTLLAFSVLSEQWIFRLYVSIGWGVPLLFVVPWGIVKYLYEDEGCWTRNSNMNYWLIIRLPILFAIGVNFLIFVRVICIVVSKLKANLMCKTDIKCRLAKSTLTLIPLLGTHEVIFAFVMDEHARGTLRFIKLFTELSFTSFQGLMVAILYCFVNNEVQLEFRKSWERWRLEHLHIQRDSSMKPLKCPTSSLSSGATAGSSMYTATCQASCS

T3: human GIPR (human, UniProt P48546)
T3 sequence: T1 chain

T4: human GIPR (human, UniProt P48546)
T4 sequence: T1 chain

T5: human GIPR (human, UniProt P48546)
T5 sequence: T1 chain

T6: human GIPR (human, UniProt P48546)
T6 sequence: T1 chain

B1: Compound 381 (peptide)
peptide: Y[Aib]EGTFISDYSK([PEG(2)-C20 diacid])ALDRIAQQNFVNW[Iva]LAQRPSSGAPPPS
modifications: ends and bridges not checked
B2: Compound 383 (peptide)
peptide: Y[Aib]EGTFISDYSIAK([PEG(2)-C20 diacid])DRIAQQNFVNW[Iva]LAQRPSSGAPPPS
modifications: ends and bridges not checked
B3: Compound 385 (peptide)
peptide: Y[Aib]EGTFISDYSIALDRK([PEG(2)-C20 diacid])AQQNFVNW[Iva]LAQRPSSGAPPPS
modifications: ends and bridges not checked
B4: Compound 387 (peptide)
peptide: Y[Aib]EGTFISDYSK([PEG(2)-C20 diacid])ALDRIAQQNFVNW[Iva]LAQR
modifications: ends and bridges not checked
B5: Compound 389 (peptide)
peptide: Y[Aib]EGTFISDYSIAK([PEG(2)-C20 diacid])DRIAQQNFVNW[Iva]LAQR
modifications: ends and bridges not checked
B6: Compound 391 (peptide)
peptide: Y[Aib]EGTFISDYSIALDRK([PEG(2)-C20 diacid])AQQNFVNW[Iva]LAQR
modifications: ends and bridges not checked
B7: Compound 404 (peptide)
peptide: Y[Aib]EGTFISDYSIALDRK([PEG(2)-C20 diacid])AQQNFVNW[Iva]LAQRPSSGAPPPS
modifications: not fully specified (C-terminus); ends and bridges not checked
B8: Compound 408 (peptide)
peptide: Y[Aib]EGTFISDYSIALDRK([PEG(2)-C20 diacid])AQQNFVNW[Iva]LAQRPSSGAPPPS
modifications: not fully specified (C-terminus); ends and bridges not checked
B9: Compound 324 (peptide)
peptide: Y[Aib]EGTVVSLYSK([PEG3′-PEG3′-C20 diacid])[Aib]LDRQAQ[Aib]EFVK(Ac)WLLRGGPSSGAPPPS
modifications: ends and bridges not checked
B10: Compound 326 (peptide)
peptide: Y[Aib]EGTVVSLYSK([PEG3′-PEG3′-γGlu-C20 diacid])[Aib]LDRQAQ[Aib]EFVK(Ac)WLLRGGPSSGAPPPS
modifications: ends and bridges not checked
B11: Compound 24 (peptide)
peptide: YAEGTVVSLYSIALDKQHQQEFVKWLLKGGPSSGAPPPSK
B12: Compound 25 (peptide)
peptide: B11 peptide with Q17I
B13: Compound 26 (peptide)
peptide: B11 peptide with D15Y, Q17I
B14: Compound 30 (peptide)
peptide: Y[Aib]EGTVVSLYSI[Aib]LDRQAQ[Aib]EFVRWLLRGGPSSGAPPPSR-NH2
modifications: N-terminus assumed
SMILES: CC[C@H](C)[C@H](NC(=O)[C@H](CO)NC(=O)[C@H](Cc1ccc(O)cc1)NC(=O)[C@H](CC(C)C)NC(=O)[C@H](CO)NC(=O)[C@@H](NC(=O)[C@@H](NC(=O)[C@@H](NC(=O)CNC(=O)[C@H](CCC(=O)O)NC(=O)C(C)(C)NC(=O)[C@@H](N)Cc1ccc(O)cc1)[C@@H](C)O)C(C)C)C(C)C)C(=O)NC(C)(C)C(=O)N[C@@H](CC(C)C)C(=O)N[C@@H](CC(=O)O)C(=O)N[C@@H](CCCNC(=N)N)C(=O)N[C@@H](CCC(N)=O)C(=O)N[C@@H](C)C(=O)N[C@@H](CCC(N)=O)C(=O)NC(C)(C)C(=O)N[C@@H](CCC(=O)O)C(=O)N[C@@H](Cc1ccccc1)C(=O)N[C@H](C(=O)N[C@@H](CCCNC(=N)N)C(=O)N[C@@H](Cc1c[nH]c2ccccc12)C(=O)N[C@@H](CC(C)C)C(=O)N[C@@H](CC(C)C)C(=O)N[C@@H](CCCNC(=N)N)C(=O)NCC(=O)NCC(=O)N1CCC[C@H]1C(=O)N[C@@H](CO)C(=O)N[C@@H](CO)C(=O)NCC(=O)N[C@@H](C)C(=O)N1CCC[C@H]1C(=O)N1CCC[C@H]1C(=O)N1CCC[C@H]1C(=O)N[C@@H](CO)C(=O)N[C@@H](CCCNC(=N)N)C(N)=O)C(C)C
B15: Compound 307 (peptide)
peptide: YXEGTXISDYSIXLDRXAQXNFVNWXLAQRPSSGAPPPS
modifications: not fully specified; MeTyr at 1; Aib at 2, 13, 20; Iva at 6, 26; Lys(Eda-PEG(3)-PEG(3)-) at 17; C-terminal amide (-NH2)
B16: Compound 341 (peptide)
peptide: B15 peptide with L14X
modifications: MeTyr at 1; Aib at 2, 13, 17, 20; Iva at 6, 26; Lys(Eda-GGGGG-) at 14; C-terminal amide (-NH2)
B17: Compound 342 (peptide)
peptide: B15 peptide with L14X
modifications: Me-Tyr at 1; Aib at 2, 13, 17, 20; Iva at 6, 26; Lys(Eda-GGGGGG-) at 14; C-terminal amide (-NH2) (as printed for SEQ ID NO: 355 in the 1st table)
B18: Compound 349 (peptide)
peptide: B15 peptide
modifications: MeTyr at 1; Aib at 2, 13, 20; Iva at 6, 26; Lys(Oda-GGGGG-) at 17; C-terminal amide (-NH2)
B19: Compound 484 (peptide)
peptide: B15 peptide with L14X, A18H
modifications: N-terminal methyl (Me-Tyr); Aib at 2, 13, 17, 20; Iva at 6, 26; Lys(Oda-GGGGGG-) at 14; C-terminal NH2
B20: Compound 496 (peptide)
peptide: B15 peptide
modifications: N-terminal methyl (Me-Tyr); Aib at 2, 13, 20; Iva at 6, 26; Lys(Oda-GGGGGG-) at 17; C-terminal NH2
B21: Compound 503 (peptide)
peptide: B15 peptide with A18H
modifications: N-terminal methyl (Me-Tyr); Aib at 2, 13, 20; Iva at 6, 26; Lys(Heda-GGGGGG-) at 17; C-terminal NH2
B22: Compound 521 (peptide)
peptide: B15 peptide with L14X, A18H
modifications: N-terminal methyl (Me-Tyr); Aib at 2, 13, 17, 20; Iva at 6, 26; Lys(Eda-GGGGGG-) at 14; C-terminal NH2
B23: Compound 24 (peptide)
peptide: B11 peptide
B24: Compound 25 (peptide)
peptide: B11 peptide with Q17I
B25: Compound 26 (peptide)
peptide: B11 peptide with D15Y, Q17I
B26: Compound 307 (peptide)
peptide: B15 peptide
modifications: not fully specified; N-methyl on Tyr 1; Aib at 2, 13, 20; Iva at 6, 26; Lys(Eda-PEG(3)-PEG(3)-) at 17; C-terminal amide

Target: T1, human GIPR (human), P48546
Assay: [125I]GIP competition, human GIPR VLP

Row | Binder | IC50 [nM]
1 | B1 | 8.7
2 | B2 | 10
3 | B3 | 15
4 | B4 | 8.2
5 | B5 | 19
6 | B6 | 34
7 | B7 | 24
8 | B8 | 84
9 | B9 | 7.8
10 | B10 | 15

Target: T1, human GIPR (human), P48546
Assay: not given

Row | Binder | Agonist activity (EC50, M) [M]
11 | B1 | 4.4e-11
12 | B2 | 4.3e-11
13 | B3 | 8.3e-11
14 | B4 | 5.9e-11
15 | B5 | 8e-11
16 | B6 | 1.1e-10
17 | B7 | 1.1e-10
18 | B8 | 4.8e-10

Target: T2, human GLP-1R (human), P43220
Assay: not given

Row | Binder | Agonist activity (EC50, M) [M]
19 | B1 | > 1e-06
20 | B2 | > 1e-06
21 | B3 | > 1e-06
22 | B4 | > 1e-06
23 | B5 | > 1e-06
24 | B6 | > 1e-06
25 | B7 | > 1e-06
26 | B8 | > 1e-06

Target: T3, human GIPR
Assay: cell-based or functional assay

Row | Binder | Agonist activity (EC50, M) [M]
27 | B11 | 5.1e-09
28 | B12 | 1.4e-09
29 | B13 | 1.2e-08
30 | B14 | 1e-11

Target: human GLP-1R (human, UniProt P43220)
Assay: cell-based or functional assay

Row | Binder | Agonist activity (EC50, M) [M]
31 | B11 | > 1e-06
32 | B12 | > 1e-06
33 | B13 | > 1e-06
34 | B14 | > 1e-06

Target: human GLP-1R (human, UniProt P43220)
Assay: cell-based or functional assay
Remark: another data set of the same source

Row | Binder | Agonist activity (EC50, M) [M]
35 | B15 | > 1e-06
36 | B16 | > 1e-06
37 | B17 | > 1e-06
38 | B18 | > 1e-06

Target: T4, human GIPR
Assay: cell-based or functional assay

Row | Binder | Agonist activity (EC50, M) [M]
39 | B15 | 4e-11

Target: T5, human GIPR
Assay: [125I]GIP competition, human GIPR VLP
Experimental: (§1) For the measurement of the binding activity to GIPR, [¹²⁵I]GIP (PerkinElmer, Inc.) in a final concentration of 100 pM and a test compound in a specified concentration were mixed to GIPR_VLP in an assay buffer (50 mM HEPES (pH 7.4, WAKO 342-01375), 5 mM EGTA (WAKO 346-01312), 5 mM MgCl₂ (WAKO 136-03995), 0.1% BSA (Merckmillipore 81-066-04) and 0.005% Tween 20 (BioRad 170-6531)) and reacted at room temperature for 2 hours. VLP to which [¹²⁵I ]GIP was bound was trapped in a GF/C glass fiber filter 96-well plate (PerkinElmer 6005274) using a cell harvester and washed with an assay buffer. The GF/C glass fiber filter 96-well plate in which VLP was trapped was dried at 42° C. overnight. Thereafter, MicroScint-O (PerkinElmer 6013611) was added to the GF/C glass fiber filter 96-well plate sealed using a backseal and the plate was sealed using a topseal. The radioactivity of each well was eventually measured using Topcount (PerkinElmer) and the binding activity of the test compound to GIPR was calculated when the [¹²⁵I]GIP binding activity in the presence of GIP in a final concentration of […] was 100% and the [¹²⁵I]GIP binding activity of the wells to which DMSO was added was 0%.

Row | Binder | IC50 [nM]
40 | B19 | 10
41 | B20 | 10
42 | B21 | 8
43 | B22 | 20

Target: T6, human GIPR
Assay: [125I]GIP displacement, hGIPR VLP
Experimental: as §1

Row | Binder | IC50 [nM]
44 | B23 | 370
45 | B24 | 520
46 | B25 | 420
47 | B26 | 5
